Data taken from the supplement of paper PMC9112550, “Optimization of the antimicrobial peptide Bac7 by deep mutational scanning” (BMC Biology, 2022).

Tested on: Escherichia coli TOP10
Test: shrunken log2 fold change of peptide-encoding DNA abundance (4.5 h post-induction vs induction); higher = less antimicrobial activity (less host growth inhibition)
Details: time post-induction: 4.5 h; library: site-saturation at positions 5, 18, 19, 20
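Also: peptides expressed intracellularly from a pBAD plasmid library in pooled LB shake-flask culture, induced with 0.3% L-arabinose, DNA abundance read by NGS, three biological replicates, DESeq2 with apeglm shrinkage.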

RRIRNRPPRLPRPRPRPDAIPRP
shrunken log2 fold change: 0.0267

RRIRNRPPRLPRPRPRPDATPRP
shrunken log2 fold change: 0.0488

RRIRNRPPRLPRPRPRPDCIPRP
shrunken log2 fold change: -0.194

RRIRNRPPRLPRPRPRPDDFPRP
shrunken log2 fold change: -0.00663

RRIRNRPPRLPRPRPRPDDPPRP
shrunken log2 fold change: -0.0062

RRIRNRPPRLPRPRPRPDESPRP
shrunken log2 fold change: -0.109

RRIRNRPPRLPRPRPRPDFCPRP
shrunken log2 fold change: 0.0953

RRIRNRPPRLPRPRPRPDHGPRP
shrunken log2 fold change: -0.319

RRIRNRPPRLPRPRPRPDKHPRP
shrunken log2 fold change: -0.0308

RRIRNRPPRLPRPRPRPDKSPRP
shrunken log2 fold change: -0.193

RRIRNRPPRLPRPRPRPDLDPRP
shrunken log2 fold change: 0.0497

RRIRNRPPRLPRPRPRPDNIPRP
shrunken log2 fold change: -0.312

RRIRNRPPRLPRPRPRPDNVPRP
shrunken log2 fold change: -0.0161

RRIRNRPPRLPRPRPRPDPFPRP
shrunken log2 fold change: -0.582

RRIRNRPPRLPRPRPRPDPSPRP
shrunken log2 fold change: 0.152

RRIRNRPPRLPRPRPRPDQVPRP
shrunken log2 fold change: -0.148

RRIRNRPPRLPRPRPRPDRFPRP
shrunken log2 fold change: -0.148

RRIRNRPPRLPRPRPRPDRIPRP
shrunken log2 fold change: -0.0387

RRIRNRPPRLPRPRPRPDWGPRP
shrunken log2 fold change: 0.128

RRIRNRPPRLPRPRPRPEAGPRP
shrunken log2 fold change: -0.0775

RRIRNRPPRLPRPRPRPEAHPRP
shrunken log2 fold change: -0.0208

RRIRNRPPRLPRPRPRPEALPRP
shrunken log2 fold change: 0.102

RRIRNRPPRLPRPRPRPEANPRP
shrunken log2 fold change: -0.0185

RRIRNRPPRLPRPRPRPECVPRP
shrunken log2 fold change: -0.127

RRIRNRPPRLPRPRPRPEDKPRP
shrunken log2 fold change: 0.114

RRIRNRPPRLPRPRPRPEDNPRP
shrunken log2 fold change: 0.0315

RRIRNRPPRLPRPRPRPEDSPRP
shrunken log2 fold change: -0.0784

RRIRNRPPRLPRPRPRPEDYPRP
shrunken log2 fold change: -0.133

RRIRNRPPRLPRPRPRPEFAPRP
shrunken log2 fold change: 0.175

RRIRNRPPRLPRPRPRPEFFPRP
shrunken log2 fold change: -0.064

RRIRNRPPRLPRPRPRPEHIPRP
shrunken log2 fold change: -0.313

RRIRNRPPRLPRPRPRPEIAPRP
shrunken log2 fold change: -0.0256

RRIRNRPPRLPRPRPRPEKFPRP
shrunken log2 fold change: -0.165

RRIRNRPPRLPRPRPRPELTPRP
shrunken log2 fold change: 0.162

RRIRNRPPRLPRPRPRPENHPRP
shrunken log2 fold change: -0.124

RRIRNRPPRLPRPRPRPEQDPRP
shrunken log2 fold change: 0.0235

RRIRNRPPRLPRPRPRPEQSPRP
shrunken log2 fold change: 0.338

RRIRNRPPRLPRPRPRPERKPRP
shrunken log2 fold change: -0.016

RRIRNRPPRLPRPRPRPESNPRP
shrunken log2 fold change: 0.0856

RRIRNRPPRLPRPRPRPESYPRP
shrunken log2 fold change: -0.0446

RRIRNRPPRLPRPRPRPETPPRP
shrunken log2 fold change: 0.36

RRIRNRPPRLPRPRPRPEVYPRP
shrunken log2 fold change: 0.0702

RRIRNRPPRLPRPRPRPEWTPRP
shrunken log2 fold change: -0.0178

RRIRNRPPRLPRPRPRPEYTPRP
shrunken log2 fold change: -0.0431

RRIRNRPPRLPRPRPRPFAQPRP
shrunken log2 fold change: -0.321

RRIRNRPPRLPRPRPRPFCCPRP
shrunken log2 fold change: -0.257

RRIRNRPPRLPRPRPRPFDHPRP
shrunken log2 fold change: -0.0345

RRIRNRPPRLPRPRPRPFDVPRP
shrunken log2 fold change: -0.0429

RRIRNRPPRLPRPRPRPFFFPRP
shrunken log2 fold change: 0.0988

RRIRNRPPRLPRPRPRPFFNPRP
shrunken log2 fold change: -0.725

RRIRNRPPRLPRPRPRPFGSPRP
shrunken log2 fold change: -0.0105

RRIRNRPPRLPRPRPRPFHMPRP
shrunken log2 fold change: -0.458

RRIRNRPPRLPRPRPRPFHVPRP
shrunken log2 fold change: -0.128

RRIRNRPPRLPRPRPRPFHWPRP
shrunken log2 fold change: -0.186

RRIRNRPPRLPRPRPRPFKLPRP
shrunken log2 fold change: -0.155

RRIRNRPPRLPRPRPRPFMFPRP
shrunken log2 fold change: -0.399

RRIRNRPPRLPRPRPRPFNGPRP
shrunken log2 fold change: -0.0926

RRIRNRPPRLPRPRPRPFPKPRP
shrunken log2 fold change: 0.0299

RRIRNRPPRLPRPRPRPFPSPRP
shrunken log2 fold change: -0.0692

RRIRNRPPRLPRPRPRPFQVPRP
shrunken log2 fold change: -0.134

RRIRNRPPRLPRPRPRPFSHPRP
shrunken log2 fold change: -0.015

RRIRNRPPRLPRPRPRPFSQPRP
shrunken log2 fold change: -0.021

RRIRNRPPRLPRPRPRPFTPPRP
shrunken log2 fold change: -0.197

RRIRNRPPRLPRPRPRPFVHPRP
shrunken log2 fold change: -0.568

RRIRNRPPRLPRPRPRPFWNPRP
shrunken log2 fold change: -0.151

RRIRNRPPRLPRPRPRPFYWPRP
shrunken log2 fold change: -0.0682

RRIRNRPPRLPRPRPRPGAAPRP
shrunken log2 fold change: 0.417

RRIRNRPPRLPRPRPRPGAIPRP
shrunken log2 fold change: 0.0755

RRIRNRPPRLPRPRPRPGAKPRP
shrunken log2 fold change: 0.362

RRIRNRPPRLPRPRPRPGANPRP
shrunken log2 fold change: -0.151

RRIRNRPPRLPRPRPRPGEMPRP
shrunken log2 fold change: 0.336

RRIRNRPPRLPRPRPRPGFPPRP
shrunken log2 fold change: -0.00149

RRIRNRPPRLPRPRPRPGGAPRP
shrunken log2 fold change: 0.283

RRIRNRPPRLPRPRPRPGGRPRP
shrunken log2 fold change: 0.0809

RRIRNRPPRLPRPRPRPGHEPRP
shrunken log2 fold change: -0.265

RRIRNRPPRLPRPRPRPGHMPRP
shrunken log2 fold change: -0.147

RRIRNRPPRLPRPRPRPGIMPRP
shrunken log2 fold change: -0.186

RRIRNRPPRLPRPRPRPGITPRP
shrunken log2 fold change: -0.326

RRIRNRPPRLPRPRPRPGKGPRP
shrunken log2 fold change: 0.101

RRIRNRPPRLPRPRPRPGLIPRP
shrunken log2 fold change: 0.16

RRIRNRPPRLPRPRPRPGMGPRP
shrunken log2 fold change: 0.307

RRIRNRPPRLPRPRPRPGNMPRP
shrunken log2 fold change: -1.16

RRIRNRPPRLPRPRPRPGNRPRP
shrunken log2 fold change: -0.0775

RRIRNRPPRLPRPRPRPGPHPRP
shrunken log2 fold change: 0.0143

RRIRNRPPRLPRPRPRPGPKPRP
shrunken log2 fold change: 0.284

RRIRNRPPRLPRPRPRPGPNPRP
shrunken log2 fold change: 0.0126

RRIRNRPPRLPRPRPRPGPTPRP
shrunken log2 fold change: 0.3

RRIRNRPPRLPRPRPRPGPWPRP
shrunken log2 fold change: 0.0802

RRIRNRPPRLPRPRPRPGRCPRP
shrunken log2 fold change: 0.143

RRIRNRPPRLPRPRPRPGRPPRP
shrunken log2 fold change: 0.123

RRIRNRPPRLPRPRPRPGSFPRP
shrunken log2 fold change: -0.0339

RRIRNRPPRLPRPRPRPGSSPRP
shrunken log2 fold change: 0.0992

RRIRNRPPRLPRPRPRPGSWPRP
shrunken log2 fold change: 0.257

RRIRNRPPRLPRPRPRPGTRPRP
shrunken log2 fold change: 0.00131

RRIRNRPPRLPRPRPRPGTWPRP
shrunken log2 fold change: 0.218

RRIRNRPPRLPRPRPRPGVDPRP
shrunken log2 fold change: -0.154

RRIRNRPPRLPRPRPRPGVGPRP
shrunken log2 fold change: 0.402

RRIRNRPPRLPRPRPRPGYRPRP
shrunken log2 fold change: -0.514

RRIRNRPPRLPRPRPRPHAEPRP
shrunken log2 fold change: 0.00246

RRIRNRPPRLPRPRPRPHASPRP
shrunken log2 fold change: 0.065

RRIRNRPPRLPRPRPRPHCAPRP
shrunken log2 fold change: 0.0341

RRIRNRPPRLPRPRPRPHCDPRP
shrunken log2 fold change: -0.292

RRIRNRPPRLPRPRPRPHEGPRP
shrunken log2 fold change: -0.015

RRIRNRPPRLPRPRPRPHEKPRP
shrunken log2 fold change: -0.0437

RRIRNRPPRLPRPRPRPHELPRP
shrunken log2 fold change: -0.0632

RRIRNRPPRLPRPRPRPHGAPRP
shrunken log2 fold change: 0.245

RRIRNRPPRLPRPRPRPHHCPRP
shrunken log2 fold change: -0.0844

RRIRNRPPRLPRPRPRPHKEPRP
shrunken log2 fold change: 0.0155

RRIRNRPPRLPRPRPRPHKKPRP
shrunken log2 fold change: -0.00756

RRIRNRPPRLPRPRPRPHKQPRP
shrunken log2 fold change: -0.359

RRIRNRPPRLPRPRPRPHKTPRP
shrunken log2 fold change: -0.22

RRIRNRPPRLPRPRPRPHLDPRP
shrunken log2 fold change: 0.118

RRIRNRPPRLPRPRPRPHLHPRP
shrunken log2 fold change: -0.121

RRIRNRPPRLPRPRPRPHNIPRP
shrunken log2 fold change: -0.54

RRIRNRPPRLPRPRPRPHNKPRP
shrunken log2 fold change: -0.483

RRIRNRPPRLPRPRPRPHNSPRP
shrunken log2 fold change: -0.767

RRIRNRPPRLPRPRPRPHPGPRP
shrunken log2 fold change: -0.0788

RRIRNRPPRLPRPRPRPHPRPRP
shrunken log2 fold change: 0.0824

RRIRNRPPRLPRPRPRPHPWPRP
shrunken log2 fold change: 0.0589

RRIRNRPPRLPRPRPRPHQPPRP
shrunken log2 fold change: 0.0075

RRIRNRPPRLPRPRPRPHTDPRP
shrunken log2 fold change: -0.373

RRIRNRPPRLPRPRPRPHTLPRP
shrunken log2 fold change: -0.39

RRIRNRPPRLPRPRPRPHTNPRP
shrunken log2 fold change: 0.0886

RRIRNRPPRLPRPRPRPHTYPRP
shrunken log2 fold change: -0.501

RRIRNRPPRLPRPRPRPHVDPRP
shrunken log2 fold change: 0.00884

RRIRNRPPRLPRPRPRPHWSPRP
shrunken log2 fold change: -0.285

RRIRNRPPRLPRPRPRPHYAPRP
shrunken log2 fold change: -0.0337

RRIRNRPPRLPRPRPRPHYDPRP
shrunken log2 fold change: -0.775

RRIRNRPPRLPRPRPRPIADPRP
shrunken log2 fold change: 0.0461

RRIRNRPPRLPRPRPRPICKPRP
shrunken log2 fold change: 0.0454

RRIRNRPPRLPRPRPRPIDLPRP
shrunken log2 fold change: -0.0431

RRIRNRPPRLPRPRPRPIGGPRP
shrunken log2 fold change: -0.00925

RRIRNRPPRLPRPRPRPIIEPRP
shrunken log2 fold change: 0.00312

RRIRNRPPRLPRPRPRPIIIPRP
shrunken log2 fold change: -0.663

RRIRNRPPRLPRPRPRPIKRPRP
shrunken log2 fold change: 0.0699

RRIRNRPPRLPRPRPRPILGPRP
shrunken log2 fold change: -0.00992

RRIRNRPPRLPRPRPRPIMEPRP
shrunken log2 fold change: -0.139

RRIRNRPPRLPRPRPRPIMHPRP
shrunken log2 fold change: 0.00105

RRIRNRPPRLPRPRPRPINKPRP
shrunken log2 fold change: -0.56

RRIRNRPPRLPRPRPRPINLPRP
shrunken log2 fold change: -0.176

RRIRNRPPRLPRPRPRPIPFPRP
shrunken log2 fold change: -0.0196

RRIRNRPPRLPRPRPRPIPLPRP
shrunken log2 fold change: 0.0142

RRIRNRPPRLPRPRPRPIQLPRP
shrunken log2 fold change: -0.203

RRIRNRPPRLPRPRPRPITKPRP
shrunken log2 fold change: -0.113

RRIRNRPPRLPRPRPRPIVVPRP
shrunken log2 fold change: 0.0207

RRIRNRPPRLPRPRPRPIWNPRP
shrunken log2 fold change: -0.146

RRIRNRPPRLPRPRPRPIYAPRP
shrunken log2 fold change: -0.71

RRIRNRPPRLPRPRPRPIYDPRP
shrunken log2 fold change: -0.4

RRIRNRPPRLPRPRPRPKAPPRP
shrunken log2 fold change: -0.0518

RRIRNRPPRLPRPRPRPKAYPRP
shrunken log2 fold change: 0.0121
